How the values were obtained:
Test in all cases: SPOT array
[1] = molecular target: T1, Abp1, P15891; conditions: median of control spots 935
T1 sequence (P15891 535-592, looked up): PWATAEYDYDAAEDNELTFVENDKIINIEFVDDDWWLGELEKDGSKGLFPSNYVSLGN

[2] = molecular target: T2, Bbc1, P47068; conditions: median of control spots 796
T2 sequence (P47068 1-78, looked up): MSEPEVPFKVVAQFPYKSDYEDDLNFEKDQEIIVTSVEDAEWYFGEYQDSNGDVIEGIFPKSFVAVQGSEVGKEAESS

[3] = molecular target: Bem1-1, P29366; conditions: median of control spots 4282
[4] = molecular target: Bem1-2, P29366; conditions: median of control spots 4347
[5] = molecular target: T3, Boi1, P38041; conditions: median of control spots 1162
T3 sequence (P38041 1-86, looked up): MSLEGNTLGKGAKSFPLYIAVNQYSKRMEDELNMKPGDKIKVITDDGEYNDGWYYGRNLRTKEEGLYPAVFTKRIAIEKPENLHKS

[6] = molecular target: T4, Boi2, P39969; conditions: median of control spots 1161
T4 sequence (P39969 32-116, looked up): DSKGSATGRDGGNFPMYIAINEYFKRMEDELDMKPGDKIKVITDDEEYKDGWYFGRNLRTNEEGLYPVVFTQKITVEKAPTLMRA

[7] = molecular target: T5, Bud14, P27637; conditions: median of control spots 956
T5 sequence (P27637 247-328, looked up): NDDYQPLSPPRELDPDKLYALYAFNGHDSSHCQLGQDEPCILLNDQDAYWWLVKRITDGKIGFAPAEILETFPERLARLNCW

[8] = molecular target: T6, Bzz1-1, P38822; conditions: median of control spots 4446
T6 sequence (P38822 478-572, looked up): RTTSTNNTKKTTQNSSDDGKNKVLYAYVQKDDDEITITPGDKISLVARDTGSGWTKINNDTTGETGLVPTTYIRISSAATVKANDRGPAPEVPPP

[9] = molecular target: T7, Bzz1-2, P38822; conditions: median of control spots 4538
T7 sequence (P38822 568-633, looked up): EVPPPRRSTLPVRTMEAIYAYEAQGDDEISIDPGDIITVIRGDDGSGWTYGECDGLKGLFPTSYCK

[10] = molecular target: T8, Cdc25, P04821; conditions: median of control spots 969
T8 sequence (P04821 50-136, looked up): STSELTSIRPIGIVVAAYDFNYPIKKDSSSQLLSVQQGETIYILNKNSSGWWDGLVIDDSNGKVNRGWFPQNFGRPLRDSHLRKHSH

[11] = molecular target: T9, Cyk3, Q07533; conditions: median of control spots 1451
T9 sequence (Q07533 1-83, looked up): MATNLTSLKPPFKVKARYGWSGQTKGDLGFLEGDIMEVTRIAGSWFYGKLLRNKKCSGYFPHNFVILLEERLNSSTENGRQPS

[12] = molecular target: T10, Fus1, P11710; conditions: median of control spots 1200
T10 sequence (P11710 432-512, looked up): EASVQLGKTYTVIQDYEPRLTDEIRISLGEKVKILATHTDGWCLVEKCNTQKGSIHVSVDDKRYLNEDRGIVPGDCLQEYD

[13] = molecular target: GST; conditions: median of control spots 978
[14] = molecular target: T11, Hof1, Q05080; conditions: median of control spots 4086
T11 sequence (Q05080 590-669, looked up): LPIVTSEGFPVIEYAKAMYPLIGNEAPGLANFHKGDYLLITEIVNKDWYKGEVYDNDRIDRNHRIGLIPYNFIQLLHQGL

[15] = molecular target: T12, Hse1, P38753; conditions: median of control spots 1727
T12 sequence (P38753 208-285, looked up): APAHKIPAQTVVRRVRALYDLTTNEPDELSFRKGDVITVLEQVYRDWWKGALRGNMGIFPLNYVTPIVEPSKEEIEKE

[16] = molecular target: T13, Lsb1, P53281; conditions: median of control spots 388
T13 sequence (P53281 45-122, looked up): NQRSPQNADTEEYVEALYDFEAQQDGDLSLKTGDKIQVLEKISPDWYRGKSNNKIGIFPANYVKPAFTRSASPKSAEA

[17] = molecular target: T14, Lsb3, P43603; conditions: median of control spots 406
T14 sequence (P43603 385-451, looked up): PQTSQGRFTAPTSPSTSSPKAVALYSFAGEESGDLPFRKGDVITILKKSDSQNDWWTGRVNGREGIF

[18] = molecular target: T15, Lsb4, P32793; conditions: median of control spots 397
T15 sequence (P32793 402-468, looked up): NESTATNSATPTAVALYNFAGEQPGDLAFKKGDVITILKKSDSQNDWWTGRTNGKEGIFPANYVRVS

[19] = molecular target: Myo3, P36006; conditions: median of control spots 468
[20] = molecular target: T16, Myo5, Q04439; conditions: median of control spots 471
T16 sequence (Q04439 1072-1160, looked up): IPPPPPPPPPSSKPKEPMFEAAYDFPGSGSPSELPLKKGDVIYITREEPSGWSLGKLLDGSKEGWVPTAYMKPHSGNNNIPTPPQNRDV

[21] = molecular target: T17, Nbp2, Q12163; conditions: median of control spots 357
T17 sequence (Q12163 103-180, looked up): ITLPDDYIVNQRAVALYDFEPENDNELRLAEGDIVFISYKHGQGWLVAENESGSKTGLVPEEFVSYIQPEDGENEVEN

[22] = molecular target: T18, Pex13, P80667; conditions: median of control spots 1341
T18 sequence (P80667 295-386, looked up): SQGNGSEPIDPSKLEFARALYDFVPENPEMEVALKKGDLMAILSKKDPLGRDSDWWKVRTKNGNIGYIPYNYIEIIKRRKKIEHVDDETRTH

[23] = molecular target: T19, Pin3, Q06449; conditions: median of control spots 2171
T19 sequence (Q06449 53-122, looked up): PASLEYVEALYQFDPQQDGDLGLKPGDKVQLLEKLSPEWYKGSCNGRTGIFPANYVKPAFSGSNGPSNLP

[24] = molecular target: Rvs167, P39743; conditions: median of control spots 2707
[25] = molecular target: Sho1, P40073; conditions: median of control spots 1148
[26] = molecular target: T20, Sla1-2, P32790; conditions: median of control spots 712
T20 sequence (P32790 60-140, looked up): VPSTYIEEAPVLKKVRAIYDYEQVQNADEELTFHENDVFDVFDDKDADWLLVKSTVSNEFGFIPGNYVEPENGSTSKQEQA

[27] = molecular target: T21, Sla1-3, P32790; conditions: median of control spots 5475
T21 sequence (P32790 344-424, looked up): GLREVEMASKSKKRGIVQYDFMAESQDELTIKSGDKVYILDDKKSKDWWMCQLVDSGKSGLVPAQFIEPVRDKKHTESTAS

Sho1, P40073, sequence (P40073 287-367): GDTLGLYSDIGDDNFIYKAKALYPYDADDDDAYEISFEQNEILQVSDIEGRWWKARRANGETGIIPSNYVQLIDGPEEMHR
Bem1-2, P29366, sequence (P29366 139-227): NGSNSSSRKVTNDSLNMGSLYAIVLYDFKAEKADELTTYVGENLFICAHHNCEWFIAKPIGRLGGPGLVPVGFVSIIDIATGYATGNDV
Rvs167, P39743, sequence (P39743 419-482): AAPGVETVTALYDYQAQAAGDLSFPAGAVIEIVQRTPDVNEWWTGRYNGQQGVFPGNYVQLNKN
Bem1-1, P29366, sequence (P29366 55-141): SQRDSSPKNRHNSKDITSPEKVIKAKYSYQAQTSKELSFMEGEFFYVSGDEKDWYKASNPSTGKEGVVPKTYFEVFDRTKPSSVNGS

Binder | SPOT intensity [1] | SPOT intensity [2] | SPOT intensity [3] | SPOT intensity [4] | SPOT intensity [5] | SPOT intensity [6] | SPOT intensity [7] | SPOT intensity [8] | SPOT intensity [9] | SPOT intensity [10] | SPOT intensity [11] | SPOT intensity [12] | SPOT intensity [13] | SPOT intensity [14] | SPOT intensity [15] | SPOT intensity [16] | SPOT intensity [17] | SPOT intensity [18] | SPOT intensity [19] | SPOT intensity [20] | other results
NFFRKKLGIPRKLKR | 99 | 101 | 1 | 13 | 14 | 2 | 43 | 0 | 7 | 138 | 4 | 219 | 0 | 29 | 130 | 234 | 1 | 1 | 3 | 0 | SPOT intensity [21]: 72; SPOT intensity [22]: 14; SPOT intensity [23]: 7; SPOT intensity [24]: 3; SPOT intensity [25]: 107; SPOT intensity [26]: 0; SPOT intensity [27]: 58
SRYRRPLTLLLLKPF | 37 | 140 | 0 | 10 | 16 | 0 | 15 | 0 | 4 | 236 | 3 | 15 | 0 | 15 | 15 | 7 | 2 | 2 | 8 | 0 | SPOT intensity [21]: 28; SPOT intensity [22]: 16; SPOT intensity [23]: 2; SPOT intensity [24]: 7; SPOT intensity [25]: 78; SPOT intensity [26]: 1; SPOT intensity [27]: 15
LLGRKRPVMERVVDI | 28 | 1 | 0 | 0 | 0 | 1 | 3 | 0 | 4 | 9 | 0 | 0 | 0 | 0 | 9 | 4 | 4 | 27 | 10 | 6 | SPOT intensity [21]: 0; SPOT intensity [22]: 110; SPOT intensity [23]: 61; SPOT intensity [24]: 5; SPOT intensity [25]: 74; SPOT intensity [26]: 5; SPOT intensity [27]: 4
FFRRSELYLPNSSKA | 22 | 19 | 3 | 15 | 3 | 0 | 10 | 1 | 5 | 115 | 0 | 37 | 0 | 25 | 43 | 2 | 0 | 0 | 0 | 0 | SPOT intensity [21]: 14; SPOT intensity [22]: 10; SPOT intensity [23]: 1; SPOT intensity [24]: 5; SPOT intensity [25]: 62; SPOT intensity [26]: 0; SPOT intensity [27]: 53
RRLRDKYKLPIVDAD | 18 | 14 | 0 | 2 | 6 | 0 | 26 | 0 | 2 | 18 | 1 | 58 | 0 | 9 | 9 | 48 | 0 | 0 | 0 | 0 | SPOT intensity [21]: 7; SPOT intensity [22]: 0; SPOT intensity [23]: 0; SPOT intensity [24]: 1; SPOT intensity [25]: 19; SPOT intensity [26]: 0; SPOT intensity [27]: 34
LLRRTIPKRPFYHVL | 18 | 184 | 0 | 108 | 7 | 2 | 13 | 0 | 13 | 44 | 0 | 14 | 1 | 52 | 43 | 139 | 2 | 2 | 0 | 0 | SPOT intensity [21]: 100; SPOT intensity [22]: 12; SPOT intensity [23]: 0; SPOT intensity [24]: 31; SPOT intensity [25]: 26; SPOT intensity [26]: 0; SPOT intensity [27]: 245

Source: article PMC2756588
